Laboratory results from PMC8171064.

Molecular target: Saccharomyces cerevisiae Rsm22 protein, C-terminally His6-tagged (construct MA-S17–K628-HHHHHH) (S. cerevisiae) (UniProt P36056)
Test: SEC-MALS; pooled and concentrated first SEC peak (higher oligomeric form); Superdex 200 10/300 GL; 40 mM Tris pH 7.5, 500 mM NaCl, 5% glycerol

**Q.** For “Saccharomyces cerevisiae Rsm22 protein, C-terminally His6-tagged (construct MA-S17–K628-HHHHHH) (from UniProt P36056 17-628) (enzyme)”, which stoichiometry N is on record?
**A.** The stoichiometry N was 2.
